Measured values as given in the NTF2 design screens of Basanta et al. (2020).

Assay: protease stability score; higher = more stable; yeast display proteolysis, trypsin and chymotrypsin;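 note: relative to predicted unfolded state with 0 unfolded-like and 1 meaning tenfold more protease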
With “SEDEEIMQRLLEELIEALTTGDEDFFTELVDPHARTEFDGKVMHGRERLKYTIELFGVKHVEFRVEVKRISVFDGRILSDTHLELIIDVDGRSVIIRRHTELRVDKVDGRWFNTEHRIE” the protease stability score was 0.183. “SEDDHELKEELKIIMKSSLTGDEDTLNRLADPHARIHQGEFNLHGREEFSRLFVELRMHDIRIEDYEVIDGRVEVDIRLNIHYNGKRYIKVTRSVFRKVDGRWLIEEVRYD” gave a protease stability score of 0.494. “SEEEKVIWDIFQDWVRAYHTGNEDLIEHLMDPHVRLDINGKEKHGREWVRYHLHELREHIRTKEYEVHHFDVVDGRAHADYEFHVEYNGREFYRRTHIEIQIVNGKIRVINIRFE” showed a protease stability score of 1.43. Sequence “SEEDKKVEEAIKYLYSFLKTGDEHEVEDMIDPHVRIDVNGKNVHGWEEAFRWTVEHMKKLGVERFEVEIKDVHKQGNYVRVLGHSRFNGKEYEIEIILIKVNGRWIIKSHRIH” has a protease stability score of 1.64. Sequence “SEEEEAEREFWEEFLRTSRTGDEELFEELIDPNVKIDINGRDLHGMEEALDTFRELRIKDIKVKHVEEQGDKIILDGRVDGIFDGKYDRVEVTFFVLKIDGRWVYHSIRLE” has a protease stability score of 1.13. For “HDEERDSKIASSIMVETWKTGNEHLMERMFDPHTRSHVGDKEIHGMEEFIRWLYELLRKIKNARFTVEDTDLINGVVVVITRLHVGDKDFLLTFFVEKFNGRWHLRSFEMK”, the protease stability score was 0.772. Work on “DEQNELLDRLSTILLRLLWTGDEDQWLRLADPDMKLDVGNFKTVGRERVIEIFRAWERHIRVERMHLEDTKLQGDFYFSDYRVDGQINGQRTDTRVIYIFVVVNGRMKSIKVIIE” yielded a protease stability score of 1.34. With “SSQEKFLKELVEIWVELWRTGNEEAFKRLADPDAKNDVNGVYSHGMENVEKLLKHFGIKHVEINDVKVQGDKVIMDGIIEFNGVTIKEHVEIVIVNGRFKELRIRRE” the protease stability score was 0.788. “DEQHEEAERAMEHMNRIEHTGDEDDLDRLMDPRTKIEVGDKELHGRHLWRVFLREARIHDSKIRDIRVIGDKVTFHTEVRITINGVEVRVHVIMIIEKVDGKWLVHRVIIR” gave a protease stability score of 1.35. With “EEVEEEVERATRRHVVDLLTGNWDKLIHEMDPNTYLLINGVKFHGREVYEILLREFIRKYKNARYHITVRDYHVQGDKAIIDMEIRIRIGDKEHHIDSELILRKVDGKWFMQEERII” the protease stability score was 2.65. “DEDDEHSEEIAKMWMHLVHTGDFDSETKLVDPHVKFKIDGREIIGREVFMQLMIELRHILRDSKIDDLNRQGEFLHVHGQVHGELIIGDKNFEINHKVEFIIIKVNGRWFAHTIIFR” gave a protease stability score of 1.64. In the case of “SEDDKMQEIAVELLEHTLKTGDEHTSKKLVDPHVRLQIGDKEHHGRDEVTRWLTELAQRADHMHIEIKDMFNVNGVVIMHGTLKIHIGDKELRLDVEWIILKYNGKWLIHSIHIR”, the protease stability score is reported as 1.94. “EEDRKHAEHVFELLMEVLLTGDWKMSRHLFDPNARIEIDGVESHGWEFIYRLLRFIWEHLGIKVRDMKIRRFDVINGVAHFDGELRLHVDGVEIVLEIRLNIFVINGRLKEVHLKRT” showed a protease stability score of 1.42. “DDHDEELQRIVEIIFRHISTGNFDHLYKYLDPNVRMIIWIGDKNITAHGREHMSEVLHKLWKHLRIKDVDLHDVKSQGEKAIVDTHVHGIIDGKDTHIKTTLIVIIVDGRLKQMEVEVK” gave a protease stability score of 2.59. In the case of “DERNDRAREYVELWEDALRTGDEHILMELADPHTRIEIGEFEIIGREEIMRFMNEIRVHVRESRIKRVTEIDGVLFADIHVRREFRFDGRSKEVRTDVIIIFNKFDGKWLLESVHVK”, the protease stability score is reported as -0.01. “DEDEHQSRHLAELIMRHIQTGDEEMIERLADPHARSNVNGVTDHGRNTMRWMKEFFKNLTLHIEDVRIVHIGNKVIVIIHLTVRFENREEHVIIIIISEKFDGRWWITEIEIRIK” gave a protease stability score of 0.505. For “DEETEIVERYERILVKALTTGDWRRIERLMDPNVKSVVNGREYHGMERYLELYRRIRSEIRINDLRIHKVTEVGNKIEAITVWHVEVDGRIEDLETRVFLRKIDGRWILEREEVA”, the protease stability score was 0.827. In the case of “TEEEEEFHRMFELEVRAWRTGDEETIRRLFDPHARIDFNGRDVIGRDEFIKRFQELGVEVHDLKIHNFRIVGDKVHWDIRLDGTFNGKRTKLEIHLYAEKYDGQWFNKTEYYI”, the protease stability score is reported as 1.36. In the case of “SEEERFVEEMLRHFLTNFLTGDWDKVAKLADPDTRSLIGDKHSHGRERVIDVLTYVVEEWRWKEFRVHRTTSIGEKAHSDTETDGNYNGVDVRSRSYIHFEVVNGRMSQIHLIFV”, the protease stability score is reported as 0.694. With “TELEELMIKIIRLILRSHNTGDEDEQRKLLDPHVRWHIGDKEIHGRDLIIEHLKEVYERIDHIEFRENHVDIQGEKLHLDGRLIFIQGDKNIEFRVHYHFLIIDGVVDLIEVQIR” the protease stability score was 1.5. Work on “REEEKDEERMVHELMEWHRTGDEKTLNELLDPNARFIINGKHIHGREVFNEEVKRLGFRIEEYHLRRVRIYDGRIEFETEIDGEVNGRRLHIETRFHAIKINGQWRLKHIEFH” yielded a protease stability score of 2.5. For “DELEEVIQKVAEMWVRLYKTGNEEIIHKLADPDVRAVYNGVENIGMHRHVELLHRLLEEIRIHDIRINRIEVQGEKAHNDTQVHFIVGEKRETRETHIEIVVVNGVIKEVVIRIH”, the protease stability score was 0.629. In the case of “SEEDEDVKRILELWLRSEETGDEHLSLELADPNTRKHQGDKEFHGMSKLVQLLAELYRRADHSHFIEKRVEVFENHVRIVGHFVLIVGEFRIVVDILILARKIDGRWILTRVNWR”, the protease stability score is reported as 1.51. In the case of “DDEEHASRNAYRILKRVVETGDWREFRKMMDPDARVLINGVQLHGREAVHHLLERVDHLHDIELRHIHTQGNKIHIEISVDGLIDGQKTETERRILVTKFNGRWKVEQIEIG”, the protease stability score is reported as 0.628. In the case of “DKEKEDAVRIVEHWIEALLTGDEHELKKYLDPEVRVEINGRDIHGMHLWSEHFKELRHEELHIHIRTVHVFDGKMSVEGELRIVGEVDGRRTDIIYHTEIEIEKVDGRWHIHHIHLR”, the protease stability score is reported as -0.195. In the case of “DEDHEHLKRMADRSWKIFLTGDEDTFVHLADPNVKQHINIDGRNHQNHGREVILRWQEEFQNYFKNMKIELHDMKFYDGRVHIDATLHWNGVERKIHLIFVIVDGRIKEERFHVR”, the protease stability score is reported as 0.707. For “TEREEDVKTAMDHLYEIIETGDWKEIHKLIDPNAKVHIDGRNLIGRELMTKIIEEMSEKYKNLRLELTHFEVQGNKVISHTNNRFDGREVRTLMILTKIDGRWIIHSINLE”, the protease stability score was 1.11. In the case of “DEEEEMVLEMAYLFIHALHTGDEDMIRHLADPNMKVDINGQEHHGRDMSNEWWRREIDQIKNVRVDIDIDELHVIDGVAYVRTTVRYHFDGRTIVYFTTFDLIIVNGKIKSVKWEVE”, the protease stability score is reported as 1.83. “TEKEEIVEETMKQLLHAEETGDWRTIEHLLDPNTRIIVEFNGVEIVLHGREEAVKFMFDFARHWRIKDFKVESIDIQGNKVHMRIRVDMEFNGKHIRTETNIHTVVVDGRIKSHERRVE” gave a protease stability score of 1.63. “EESEKSAEDATRLIIHMLETGDERLMKHLMDPDVRIEIGEYISIGRENVEELFREWRSKLGIKHIEVKRVRIEVQGNKVHIEMDTRLIVGDKEEETILRVDVVKINGRWYIKSMRLEIR” showed a protease stability score of 1.95. Work on “SEDDEELEEAARRTLKIIRTGDEDLYTRLADPHDKMQIDGVETHGMEEISRWLKEHRDRFKGLKMIERRIRVTSIDGQVRVHIDTELRVDGVTQRVELNWIASKVDGRWRLERVEFIIR” yielded a protease stability score of 0.745. “DEDKEAARHFSKILIHLMLTGDEEMIERLLDPDVKVHLVINGVHIERHGREEMIKMHRELLEQIRWKDFILRDIKVVNGVAHVDGELRREQGDKHETVRVRIDIVVINGRIRQVHIEFR” gave a protease stability score of 0.404. Sequence “DENHRHASELIEIFRHALATGDWETLYRLMDPHTRVLINGKDLHGMEEHLTFLLEEHERLGIENIDVRVRIDHREVQGDKIIIHITIHLNFNGREIYFESRIIVSKFNGRWSIESLEIR” has a protease stability score of 1.42. For “SEFEHRAHEVLEIMSNALHTGDEERMQKLMDPNVRIVIGDKENIGRETFMYWVKEIRFEIEIHIHRIDVINGRIHADTRLRIIIHYNGREHRDHFDVHFDIQKVDGRWVVHRIIVD”, the protease stability score was 2.1. With “DKEDEEAKRLLEIFITHHLTGDEEHYQTLMDPHARLDFDGRHNVGREKITEFLRRFGADHVHIKHIEVELYNGKLYVRIEVELRIGDKTMDMIWVLQLRKVDGRWHIRRETWILL” the protease stability score was 0.703. Sequence “SEEEQRKEDFLRWFHKALLTGDEEVLLKMADPNVRADINGVDIHGWKEFRQTTHDLRREIRIRDFEVKDEKLVGDKLHVDSSVDGEFDGRRHELKTHLIFLKVDGKWFFKEIRIK” has a protease stability score of 1.34.
